Substrate: CC(=O)N1c2ccc(O)cc2Oc2cc(O)ccc21
Assay: purified protein, by the assay type
[1] = other: Lineweaver-Burk curves in the absence of inhibitor
[2] = other: initial velocities, plate reader, MPO 23 nM, H2O2 22 μM, error 2 x SD

B1: Myeloperoxidase (MPO) (Homo sapiens) (protein)
chain 1: not shown
chain 2: VNCETSCVQQPPCFPLKIPPNDPRIKNQADCIPFFRSCPACPGSNITIRNQINALTSFVDASMVYGSEEPLARNLRNMSNQLGLLAVNQRFQDNGRALLPFDNLHDDPCLLTNRSARIPCFLAGDTRSSEMPELTSMHTLLLREHNRLATELKSLNPRWDGERLYQEARKIVGAMVQIITYRDYLPLVLGPTAMRKYLPTYRSYNDSVDPRIANVFTNAFRYGHTLIQPFMFRLDNRYQPMEPNPRVPLSRVFFASWRVVLEGGIDPILRGLMATPAKLNRQNQIAVDEIRERLFEQVMRIGLDLPALNMQRSRDHGLPGYNAWRRFCGLPQPETVGQLGTVLRNLKLARKLMEQYGTPNNIDIWMGGVSEPLKRKGRVGPLLACIIGTQFRKLRDGDRFWWENEGVFSMQQRQALAQISLPRIICDNTGITTVSKNNIFMSNSYPRDFVNCSTLPALNLASWREAS
With B1 as the protein, how does the Km [1] read?
Its Km is 28.8 µM.

What about the kcat [1] of the same protein?
The kcat was 207 s⁻¹.

What about the Km [2] of the same protein?
Its Km is 31 ± 4 µM.

And the kcat [2]?
Its kcat is 186 ± 6 s⁻¹.
